The test has as its target GST-RIM2 (KIAA0751) PDZ domain 1 (human). Briefly: modified ELISA, plated GST-RIM2 PDZ domain, biotinylated peptide 0.001-10 µM, curve fit; Relative EC50.

As for YGRKKRRQRRRARGRRETWV (modifications not checked) [… (SEQ ID NO: 170)], the EC50 is less than 10 nM.

The values above are taken from US20080090770A1, “Modulation of Muc1 Mediated Signal Transduction” (priority 2003, published 2008).
